Data on one molecule can be found in patent publication US20190144566A1 (ORUM THERAPEUTICS, published 2019).

The assay has as its target T1, mCherry (red fluorescence) H-RAS G12V (UniProt P01112 1-186).
T1 construct: Expressed inside NIH3T3 cells, located at the inner cell membrane; also called intracellular H-RAS G12V mutants; not shown: mCherry red fluorescent protein
Briefly: confocal co-localisation in NIH3T3 cells expressing mCherry H-RAS G12V.

B1: cytosol-penetrating antibody (cytotransmab) TMab4 (antibody, V domains shown)
VH: EVQLVESGGGLVQPGGSLRLSCAASGYTFTSYVMHWVRQAPGKGLEWVSAINPYNDGNYYADSVKGRFTISRDNSRKTLYLQMNSLRAEDTAVYYCARGAYKRGYAMDYWGQGTTVTVSS
VL: DLVMTQSPSSLSASVGDRVTITCKSSQSLFNSRTRKNYLAWYQQKPGKAPKLLIYWASTRESGVPSRFSGSGSGTDFTLTISSLQPEDFATYYCQQYYYHMYTFGQGTKVEIKR
notes: Intact IgG-format monoclonal antibody with CH1-hinge-CH2-CH3 and CL; Used as negative control in the RAS assays; also called CT
Turning to B1, the binding result is on record as “no binding (tested: 2 µM)”.
